Test results as given in PMC3401450 (Nucleic Acids Research, 2012).
Several values for one entry are separate records, joined by “and”; a condition that tells them apart may be missing. Identical values can stand only once. Each block holds one molecule with its values, some of them ahead of it.

What was measured:
[1] = target: Full-length Dreb2a fused to His-tag and GB1-tag (GB1-Dreb2a f.l.) (A. thaliana) (UniProt O82132); assay: cross-linking
Dreb2a f.l. (GB1 fusion) = Dreb2a f.l. (GB1 fusion) (Arabidopsis thaliana, UniProt O82132 1-335); assay: EMSA
[2] = target: Dreb2a f.l. (GB1 fusion);Med25 551-680 (ACID domain) (Arabidopsis thaliana;Arabidopsis …, UniProt O82132;Q7XYY2 1-335;551-680, |); assay: EMSA supershift
[3] = target: T1, Dreb2a 168-335 (binding domain and activation domain of Dreb2a) (A. thaliana, UniProt O82132 168-335); assay: SPR
T1 sequence (looked up): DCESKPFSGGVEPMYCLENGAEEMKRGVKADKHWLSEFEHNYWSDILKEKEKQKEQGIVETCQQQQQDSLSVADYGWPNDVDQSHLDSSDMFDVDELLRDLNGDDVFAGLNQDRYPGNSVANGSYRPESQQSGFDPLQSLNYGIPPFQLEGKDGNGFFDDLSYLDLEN

[4] = target: T2, Full-length Dreb2a fused to His-tag and GB1-tag (GB1-Dreb2a f.l.) (A. thaliana, UniProt O82132 1-335); assay: SPR
[5] = target: T2, Full-length Dreb2a fused to His-tag and …; assay: cross-linking

stoichiometry N [1]: 1 and 2
Molecule: Med25 551-680-GST (GST-tagged ACID domain of Arabidopsis thaliana Med25) (from UniProt Q7XYY2 551-680) (domain or fragment)

B1: 29-nt rd29A mutated DRE mut-probe (dsDNA)
DNA 1: AAAGATATACTACTTTTATGAGTTCCAAA
DNA 2: TTTGGAACTCATAAAAGTAGTATATCTTT
binding result (Dreb2a f.l. (GB1 fusion)): no binding

B2: 29-nt rd29A DRE Wt-probe (dsDNA)
DNA 1: AAAGATATACTACCGACATGAGTTCCAAA
DNA 2: TTTGGAACTCATGTCGGTAGTATATCTTT
binding result [2]: binds
binding result (Dreb2a f.l. (GB1 fusion)): binds

Kd [3]: ~1000 nM
Kd [4]: ~100 nM
stoichiometry N [5]: 2
B3: Med25 551-680 (ACID domain of the Med25 mediator subunit from Arabidopsis thaliana), GST-tag removed (domain or fragment, A. thaliana, UniProt Q7XYY2 551-680, looked up)
chain: TSQSKYVKVWEGNLSGQRQGQPVLITRLEGYRSASASDSLAANWPPTMQIVRLISQDHMNNKQYVGKADFLVFRAMSQHGFLGQLQDKKLCAVIQLPSQTLLLSVSDKACRLIGMLFPGDMVVFKPQIPN
